According to the supplement of paper PMC9170038:

Tested on: MS2 coat protein
Assay: apparent KD of MS2 coat protein; designed switch direction (-1 OFF switch, 1 ON switch): -1; higher = weaker reporter binding
Method in brief: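 On Illumina chips, designed RNA switches with common flanks were made by stalled E. coli RNA polymerase. Titrations with SNAP-549-labelled MS2 coat protein, doubling from 0.7 or 1.5 nM to 3 µM, were done with no input, with 200 uM small-molecule ligand, or with an oligonucleotide input. Apparent KD is the median per design over clusters, from curve fits of normalised cluster fluorescence.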

[1] = Eterna round: R95, input ligand: FMN 200 uM
[2] = Eterna round: R95, input ligand: microRNA oligo, concentration not stated
[3] = Eterna round: R95, input ligand: none
[4] = input ligand: microRNA oligo, concentration not stated

Q: What does the source list for “GGGAAACAUGAGGAUCACCCAUGUAAGGAUAUGCAAAAGGAUAUAGAAGGAAAAAAAAGCAGAAGGUACAAAGG [salish99-ex1_r3_100] (puzzle: Exclusion 1)”?
A: apparent KD of MS2 coat protein [1]: 68.8 nM; apparent KD of MS2 coat protein [2]: 59.8 nM; apparent KD of MS2 coat protein [3]: 57.3 nM

Q: What does the source list for “GGGAAACAUGAGGAUCACCCAUGUGAGGAUAUGAAAAAGAAAAGAAAAGAAAGAAGAAUCAGAAGGCACAAAGG [salish99-ex1_r3_079] (puzzle: Exclusion 1)”?
A: apparent KD of MS2 coat protein [1]: 75.5 nM; apparent KD of MS2 coat protein [2]: 36.1 nM; apparent KD of MS2 coat protein [3]: 54.9 nM

Q: For “GGGAAGAACCAACAAGUAAACAUGAGGAUCACCCAUGUAAACUUCAUGUGCACGCUUUGCGUGCAAGCUCGUCUUAU [AK-miRNA-r3-14] (Eterna round: R97, puzzle: Sensor, turn-off variant 1)”, which “apparent KD of MS2 coat protein” value (input ligand: FMN 200 uM) is on record?
A: 19.2 nM

Q: What about the “apparent KD of MS2 coat protein” value (input ligand: none) of the same sequence?
A: 18.6 nM

Q: “GGGAAGUGAGGAUAUAUGAGAGAGGCUGAACCGGACGAGAAGUAGAAGGCACAUGAGGAUCACCCAUGUAGGGA [JR_Exclu4_Sub025] (puzzle: Exclusion 4)” was tested. Which “apparent KD of MS2 coat protein” value [2] did it give?
A: 128 nM

Q: How did the “apparent KD of MS2 coat protein” value [1] turn out when “GGGAAGUGAGGAUAUAUGAGAGAGGCUGGACCGGAUGAGAAGUAGAAGGCACAUGAGGAUCACCCAUGUAGGGA [JR_Exclu4_Sub026] (puzzle: Exclusion 4)” was run?
A: 130 nM

Q: And the “apparent KD of MS2 coat protein” value [2]?
A: 152 nM

Q: And the “apparent KD of MS2 coat protein” value [3]?
A: 209 nM

Q: What does the source list for “GGGAGAGAGUGAGGAUAUCAAAGAACAUGAGGAUCACCCAUGUAACCUCAUGUAAGAAGAAGAAGUGAGAAGGCACAGGAGGGU [Default title] (Eterna round: R96, puzzle: Exclusion NG 2)”?
A: apparent KD of MS2 coat protein (input ligand: FMN 200 uM): 463 nM; apparent KD of MS2 coat protein [4]: 256 nM; apparent KD of MS2 coat protein (input ligand: none): 628 nM

Q: How did the “apparent KD of MS2 coat protein” value (input ligand: FMN 200 uM) turn out when “GGGAGGAGAGUGAGGAUAUUCGAGGGAGGGAGGGUGAAGAAGGCACAUGAGGAUCACCCAUGUGGUGGGAGGUU [RHig 1] (Eterna round: R97, puzzle: Brourd's mod of Exclusion 4)” was run?
A: 23.9 nM

Q: What about the “apparent KD of MS2 coat protein” value (input ligand: none) of the same sequence?
A: 38.3 nM

Q: For “GGGAUGUCAGGAUAUCCAAAAGUCCGCCAGUACGGCAGACAGGAGAAGGGACAUGAGGAUCACCCAUGUAAAGA [Leinrete] (puzzle: Exclusion 4)”, which “apparent KD of MS2 coat protein” value [1] is on record?
A: 89 nM

Q: What about the “apparent KD of MS2 coat protein” value [2] of the same sequence?
A: 32.6 nM

Q: And the “apparent KD of MS2 coat protein” value [3]?
A: 38.3 nM

Q: With “GGGCCCGGAGGAUAUACAAUUCUGGGCUGAAAGGCUCGGGUACAUGAGGAUCACCCAUGUAGAAGGCCGGGCCC [-37.6, -34.7 kcal A 24%, 7bis-0] (Eterna round: R97, puzzle: Exclusion 2)” as the sequence, how does the “apparent KD of MS2 coat protein” value (input ligand: FMN 200 uM) read?
A: 33.4 nM

Q: What about the “apparent KD of MS2 coat protein” value (input ligand: none) of the same sequence?
A: 14.9 nM

Q: How did the “apparent KD of MS2 coat protein” value (input ligand: FMN 200 uM) turn out when “GGGCCCGGUGUGAGGAUAUGUGAUCGGAAAUGAUCGUAGAAGGCACAUGAGGAUCACCCAUGUAAGCCGGGCCC [-31.3, -29.2 kcal, A 26%, 2-0] (Eterna round: R97, puzzle: Brourd's mod of Exclusion 4)” was run?
A: 34.2 nM

Q: And the “apparent KD of MS2 coat protein” value (input ligand: none)?
A: 289 nM

Q: What does the source list for “GGGCCCGGUGUGAGGAUAUUGGGCCCGAAAGGGCCCGAGAAGGCACAUGAGGAUCACCCAUGUAAGCCGGGCCC [-46.5, -44.5 kcal, A 23%, 5c-0] (Eterna round: R97, puzzle: Brourd's mod of Exclusion 4)”?
A: apparent KD of MS2 coat protein (input ligand: FMN 200 uM): 15.8 nM; apparent KD of MS2 coat protein (input ligand: none): 14.9 nM

Q: With “GGGCUCGGAGGAUAUACAAUGGGCUCGGGAAAUCGGGCUCUACAUGAGGAUCACCCAUGUAGAAGGUCGGGCUC [-38.9, -35.6 kcal A 24%, 4,4] (Eterna round: R97, puzzle: Exclusion 2)” as the sequence, how does the “apparent KD of MS2 coat protein” value (input ligand: FMN 200 uM) read?
A: 16.4 nM

Q: What about the “apparent KD of MS2 coat protein” value (input ligand: none) of the same sequence?
A: 14.1 nM

Q: What does the source list for “GGGCUGCGACGCAGCCAAACAAAACAUGAGGAUCACCCAUGUCAGGAUAUACCGAUGCAGCAUCUGUAGAAGGGACAGAUCCAA [Onlaorre] (Eterna round: R96, puzzle: Exclusion NG 3)”?
A: apparent KD of MS2 coat protein (input ligand: FMN 200 uM): 145 nM; apparent KD of MS2 coat protein [4]: 63.5 nM; apparent KD of MS2 coat protein (input ligand: none): 73.3 nM

Q: “GGGCUGUCAGGAUAUCCCGGGCCCGGGUAAACCCGGGUUUGGGAGAAGGGACAUGAGGAUCACCCAUGUGGCCC [-39.8, -38.8 kcal, A 20%, 5cbis-0] (Eterna round: R97, puzzle: Exclusion 4)” was tested. Which “apparent KD of MS2 coat protein” value (input ligand: FMN 200 uM) did it give?
A: 34.8 nM

Q: What about the “apparent KD of MS2 coat protein” value (input ligand: none) of the same sequence?
A: 34.1 nM

Q: What does the source list for “GGGCUGUCAGGAUAUUCGAGUUCGAGUGAAAGCUUGAGCUUGAAGAAGGGACAUGAGGAUCACCCAUGUGGCCC [-32.1, -31.1 kcal, A 26%, 1bis-0] (Eterna round: R97, puzzle: Exclusion 4)”?
A: apparent KD of MS2 coat protein (input ligand: FMN 200 uM): 30.5 nM; apparent KD of MS2 coat protein (input ligand: none): 31.9 nM

Q: How did the “apparent KD of MS2 coat protein” value (input ligand: FMN 200 uM) turn out when “GGGUGACAGUUAGGAUAUCUUAGCACGCCGUAGAGAGAAGGAACAUGAGGAUCACCCAUGUUGUAGUGCCUCCGGCACUGCUAG [Zaquata] (Eterna round: R96, puzzle: Exclusion NG 1)” was run?
A: 59.2 nM

Q: What about the “apparent KD of MS2 coat protein” value [4] of the same sequence?
A: 30.1 nM

Q: And the “apparent KD of MS2 coat protein” value (input ligand: none)?
A: 43.5 nM

Q: For “GGGUGACAUGAGGAUCACCCAUGUCAGGAUAUGAUACUAUGUACUUCGGUACAUAGUAUCAGAAGGGACAUAAA [Ex1-3: 15] (puzzle: Exclusion 1)”, which “apparent KD of MS2 coat protein” value [2] is on record?
A: 103 nM

Q: For “GGGUGCAGGCUGAGAUCCUACAUGAGGAUCACCCAUGUGGUCCGGUGACGUGAGUCACCGGACUUAGCUCGUCUUGU [salish99_S_TOV1_R5_007] (Eterna round: R97, puzzle: Sensor, turn-off variant 1)”, which “apparent KD of MS2 coat protein” value (input ligand: FMN 200 uM) is on record?
A: 162 nM

Q: What about the “apparent KD of MS2 coat protein” value (input ligand: none) of the same sequence?
A: 192 nM

Q: How did the “apparent KD of MS2 coat protein” value (input ligand: FMN 200 uM) turn out when “GGGUGCAGGCUGCGGUCCUACAUGAGGAUCACCCAUGUGGUCCGGUGGCGUGGGUCGCCGGACUUGGCUCGUCUUGU [salish99_S_TOV1_R5_014] (Eterna round: R97, puzzle: Sensor, turn-off variant 1)” was run?
A: 91.2 nM

Q: And the “apparent KD of MS2 coat protein” value (input ligand: none)?
A: 99.3 nM

Q: What does the source list for “GGGUGCGAGCUAAGAUCCUACAUGAGGAUCACCCAUGUGGUCCGGUGACGUGAGUCACCGGACUUAGCUCGUCUUGU [salish99_S_TOV1_R5_005] (Eterna round: R97, puzzle: Sensor, turn-off variant 1)”?
A: apparent KD of MS2 coat protein (input ligand: FMN 200 uM): 26.3 nM; apparent KD of MS2 coat protein (input ligand: none): 29.2 nM

Q: “GGUAAAGGCCGAGGAUAUCGGAAAGGAAGUGUACGAGAAGGCGGCAAAAGAACAUGAGGAUCACCCAUGUGGGCCGAUCUUCCG [16th something] (Eterna round: R96, puzzle: Exclusion NG 1)” was tested. Which “apparent KD of MS2 coat protein” value (input ligand: FMN 200 uM) did it give?
A: 23.6 nM

Q: What about the “apparent KD of MS2 coat protein” value [4] of the same sequence?
A: 16.8 nM

Q: And the “apparent KD of MS2 coat protein” value (input ligand: none)?
A: 18 nM

Q: Which results are given for “GGUAAGCUAGGAUAUGCUUUGGGAAAGCAUUCCUUCGAUAAACUUGAGGAUCACCCAAGUAGAAGGAGCUUCCC [salish99_ex2_r4_017] (Eterna round: R97, puzzle: Exclusion 2)”?
A: apparent KD of MS2 coat protein (input ligand: FMN 200 uM): 11.2 nM; apparent KD of MS2 coat protein (input ligand: none): 11 nM

Q: Which results are given for “GGUACUAACACGAAAGUGUUAGUACUAUAAGCUUGUGUUACAUGAGGAUCACCCAUGUCCUCAUAAGCUCGUCUUAU [JL-sv3-2.16 mat747 mod] (puzzle: Sensor v3, turn-off variant 2)”?
A: apparent KD of MS2 coat protein [1]: 86.7 nM; apparent KD of MS2 coat protein [2]: 19.6 nM; apparent KD of MS2 coat protein [3]: 108 nM
